Literature values in article PMC12608641.

Biological target: p55 (Homo sapiens) (UniProt Q9UHN1)
Assay: ultracentrifugation

Kd: < 0.1 nM
Substance: p55 (from UniProt Q9UHN1)
